Biological target: T1, SDF1α (Homo sapiens, UniProt P61073, F172Y/F264Y/F293Y/F304Y/F36Y/F49Y/F93Y/I162T/I169T/I173T/I243T/I257T/I286T/I300T/I39T/I53T/I89T/L165Q/L246Q/L253Q/L290Q/L297T/L301Q/L50Q/L86Q/V242T/V82T/V96T/V99T)
T1 construct: HUMAN CXCR4 QTY; made in house; host or cells: cell-free production
Experiment: Surface Plasmon Resonance analysis of CXCR4 QTY (Biacore, receptor captured on 1D4 Ab, SDF1α injected)
Type: binding
Settings: SPR, Biacore 2000, CM5 chip; SDF1α 0-1 μM; HBST with 0.2% BSA and 0.2% Fos-Choline-14
Protocol: Human CXCR4 and our CXCR4 QTY proteins obtained from cell-free production and purified with affinity beads were captured in different flow cells on a Biacore CM5 chip with immobilized 1D4 Antibody (Ab) in a Biacore 2000 instrument. Different concentrations of SDF1α, the native ligand for hCXCR4 receptor, were injected over the surface to allow interaction with the receptors.
Biacore CM5 chips were activated with 1-Ethyl-3-[3-dimethylaminopropyl]carbodiimide hydrochloride and N-hydroxysuccinimide according to the manufacturer's protocol prior to a 7 minute injection at 5 μl/min of 1D4 Ab to flow cells 2-4 at 70 μg/ml followed by deactivating of the surfaces in all the 4 flow cells with a short Ethanolamine pulse. The immobilization level of 1D4 Ab range from 8000-25000 Response units (RU).
CXCR4 and CXCR4 QTY mutant are captured by the 1D4 Ab on the CM5 chip by injecting a 0.1 mg/m1 sample of the protein to a single flow cell at 5 μl/min during 15 min with both sample and running buffer containing 0.2% Fos-Choline-14 detergent. The receptors were captured to a level of 800-3000 RU.
SDF1α were injected over all flow cells to allow interaction with both the receptors and flow cell one is used as a reference cell without any immobilized protein. […]

B1: CXCR4 QTY: Water-soluble human CXCR4 variant with 29 QTY mutations in the seven transmembrane helices (SEQ ID NO: 10) (protein)
chain: MEGISIYTSDNYTEEMGSGDYDSMKEPCFREENANYNKTFLPTIYSIIYQTGTVGNGLVILVMGYQKKLRSMTDKYRLHLSTADLQFVTTLPYWATDATANWYFGNFLCKAVHVIYTVNLYSSVLILAFISLDRYLAIVHATNSQRPRKLLAEKVVYVGVWTPAQLLTTPDYTFANVSEADDRYICDRFYPNDLWVVVFQFQHIMVGLILPGIVILSCYCIIISKLSHSKGHQKRKALKTTTTLIQAFFACWQPYYTGISIDSYILLEIIKQGCEFENTVHKWISTTEAQAFYHCCTNPTQYAYLGAKFKTSAQHALTSVSRGSSLKILSKGKRGGHSSVSTESESSSSFHS
  ligand binding (SDF1α): shows ligand binding

— US8637452B2, “Water soluble membrane proteins and methods for the preparation and use thereof” (Massachusetts Institute of Technology, priority 2011, dated 2014)
